test: soluble on expression in E. coli; label from the status in PepcDB or PDB records

| Sequence | soluble on expression in E. coli |
| --- | --- |
| GPGSMQEEAISSAATGVGHVMVTFFTDSYAKAMPEESYAVPLNVLPEGLNVLVQSVLSVNDQVFDFLYNGEYITTTLQKFLSRRGVSTEELVNVEYTPALQAKESSHLPHDDWVSSVRVPFVGHSELLLTGSYDRCIRLWDADDCVAIGAHHDECVKEVVVHPMKPRSTATNTTRDSVKKRARSSLLEDFYCVSCSKDGRAAAWVFNATASKFQLLSSVKAHTDAIESIDISPGAGKYVATASWDCTVKVFEWSQVVDGATEPSAKEPLVSFTDHTRPALSCRFSAAKGAALLYSSGLDGTLKCMDVETAVLQKQYIGDHPVQGLAVRTVGGGGGGDLIIAACTDNRARLYDTRVGESTGSVKVFSGHKQWLYAASWLWRPDEGEVNGGNFFATASEDSTVRLWDLRCGTNALLTLDTSHTDGVLDVTYSGNGEIVSCGKDNSTKSFQCFKGDSLLN | not soluble |
| GPGSMRLTSRGSHNSSQVVYLLDTREFITDCSTVRQVTHFAHVHRLGSPLWLSCELASALGLTLRYMCSPLNIWSPLTGESFVQLASSPALARDTLYKFPINKEFLAPGGVLPHNSGEGSLMALSAAASSDGKPRWYNIPKDVSHLFVLPKNLCQLSVPVHRGGFRPRPFNLWVSTVIAVRMGGLAEAVKTVRTPSSFMTLVNADQMYPSALLAEKELECVLLMRKEGRLGEM | not soluble |
| GPGSMSEYADCTEVAKKALEFRQQFYQLLDNPERRGDIVALYAPNTPLLCEWNGHALPDTASIAAYLGGLPRTNHKVDCVDAQPLPGNERADSFLMTVHGVVTYDDEHKREFFQRFVIRKVEERYYIMNDYYRWLSEKE | not soluble |
| GPGSMSHVKAFDPAAQARCDPYYKRNHMGHVVCTLCDVCCSDDNNFIKHLAGKTHSLQLERLERSANREKRLAEEEELNKEAMRRAEQEKATRELLLQQTSAPHASSVTSFAPFGRPEFHYCTEHDPELYQTKVWLEFYFPQAVEGARPLHRWRSAREQEVEKPPNDDVVYLLVACEGYMTVGLKFPSKLPRTSSGLTSWGGYGNAGSDEEKGRYRCSWDPVKKLYELFFIIG | soluble |
| GPGSMSKSRRDVNKVQIGYHRAENTETVSSPHTYAYSSGKSAPSTTKPDRPTVSNIRIASAVAGLPPSRFAANASVKREKNDEESESPTAAASSVSSSLLHGAASEARTTVDGFPWSTRRVERMSFEMQNVSPPIANLLRRVLTTEVPTLAFDRVLIEENDSPVLDELLSHRLGLVPVAGPVMKMHYITESNQASFSNLDPSRVLLFELDATGAKDAAVTPVYSGQLQWVPLPGQDKTAGAVAVACQAGREECAGAAGATDHSADEDDDAVFLVHPDILLTKLGPGQRIKLKAIAVKGFGAVHAKWSPVSACYYEMKTSVELCERLTGSAAEALIKSCPAGVFGYEGGQRGAAATVVAPEKCTLCRECLRSEDKGAEAAANKGDRVRVQKDKTHVLFHIESVGQLHPAQILRFGLRLFAERCRALAEMVQSTEVHVVDASAKSLEL | not soluble |
| GPGSMSLWGGFSNPTSYSDSGLEKRLEFDFAAAVDVQTFAVEELEDVLAAAGQKLQHHFSAEGLLSLEMTQCIIILTPCKLVVTSASEVMLHQVITPTIALLTSKGVRVEWASYLRKNTTSPWCAESEMSDIMAQEYAELKAAFPAGKSFLTGPVDGHHCFNFVYDNVERIAGRKEEDVQVNVFLNDVAAGLEEVNKTTQRFHALQSGEYEVMRTFAGVPCISFETNAKAAVASPTRVQKLLDTFQPTHFTVAALQDRDADESALRCNFNAFTPYTLQNRTVNLFGEGYAFHQLLFARSAD | soluble |
| GPGSMSNAKNGSETTYFTAIANRDVEALKALIAQNRNVNEVAQDPVLYHRTPLHICVWENFVEGAKLLLDAGADVNALDDLHDSPYLLSGAEGRQEIMEHIYKNAERTMRYGSQTSLRMKTSVPDHSIVNRFGGSALIPACERGHVEMVRLLLQKGVDVNHYNYYHWTGLLEAIELGGDDREHVDIVRLLIENGADVNQVDGAGKTPLYLARKRKYKRIAALLEAAGGHE | soluble |
| GPGSMSSIPVDVLNAVTQCNEKVTAVEKEIEEFTNQVRIDFRSKIEPLFDKRHLELEKIEGFWGSAFVAVESPLMGLLNGTIDPKIVRALTDFRVKTSVRDGSICRCVSVTFRPNMFVKEGTFSRELDPSVNTLSLQPILWKPGTEKARTDSLFRFFSPECKDIEFLERALTEFDELFQNPLLAFE | not soluble |
| GPGSMSVTIYGIKNCDTMKKARIWLEDHGIDYTFHDYKKEGLDAETLDRFLKTVPWEQLLNRAGTTFRKLPEDVRSNVDAASARELMLAQPSMVKRPVLERDGKLMVGFKPAQYEAYFKL | soluble |
| GPGSMTGPFRYVITDMDGTLLSPDHFVSDYTRDTLKTLVHEHGVIPILATGRSYADVRIIADNLKAYIWCDGTAAPGARAPASPSRAPVIYLITSNGATVHNGVTHEVVFRTSIDPALAEKLLQLLPSDEEVVNTNAYQNDDWVCRIDWPKMMAVSKESGIRFIHVPHPLPSSSCALGSAAASPDAAARGIAIGDYTGISKIFFITDDAARLAALADEVHAIAKAHGGAPVSLTFSMSDCMDIMANGVTKGEALKRLFGAILPSRDGVDVVADALAHAIAFGDGLNDAEMLASVGKGCVMGNANPKLIAQHPELEVILTNAEDGVAKKLRSAFHLPL | soluble |
| GPGSMVDDFSSLSSPYVFLHGPLCSKDTCAVAAIGTTARLPYARPHSLLPLTSFLALRPAVSSGGLRHTRAYTHLLDTRVQVRIAMSEAAPPPVLGTASSAVAPQPFGGSEASRKRRLKPISFQRMAMIQEEIARIDKHLEALEASESKVVDPDSVGQHNLTTEDVIDPVVLHMLTVELCQLAASGDAVGARILLTGGADPNSRDYDGRTLLHIACMNGRLSVVTVLLEFSADASLLDRDGNTPLEVAEEYGFGDVAQVLSGYFDAGANAVPDSFTWKPPSFESTPVSIHQPDFSAVP | not soluble |
| GPGSMVKKMGRDEARAGVERRPPPMLKAERQAAFRRKVRNELLLSGRERKDAERQRMEEFRRLCKAEGIQSKRLQEYDAMREEAANKLGEKLNHIEYDQSLTNAEKRKRRYNLKRNYAGQTVMDLVQKQEKHHNALTKVEKIRKKRQEEIEAARVAKRERDEMKVKRIKERMAQNALYAQRTRKGQPVMSGRVEALLNKIQRNQQQ | soluble |
| GPGSMVSTRETLSVEEQRYLDQELPPRELLTSLRSRDRSPTDDNETDVTVPGDSFGIMRNRVAFYKPVPRDVYSGELGECFPEGCHPLRCVNPATLHHLSERFGVSIREAVKAMQNAQMDINIAIDELCRRKCIDPPAGSFGLVGLESYASETFCLVNFTLPSLEATRDDDVLDALHELTLSAAEIPLDTPTEDLVDKFVNNWTVEDGRSCKDVLDMYDLGVNKIVLLPHGDYSVEGFYVLHPVKEDTPNIGTGAAACCLDLRTGIHNRFRFHVERIADSVSEHVIRELVHYGQDVHVLRQAYWFKPEYSVEEYIRFKESLLQPSASVFEMRYAVLAVGSYALPGYRNLVEMEKLKVAQHKYEKHYEDFMSPGKWLTSDNSQLQTVAAGGGNAPGAALHMHTNGPDVALNAMETRAGPLRRTLETSIQAHGDRVFSRFYRNNHH | not soluble |
| GPHSMRYYETATSRRGLGEPRYTSVGYVDDKEFVRFDSDAENPRYEPQVPWMEQEGPEYWERITQVAKGQEQWFRVNLRTLLGYYNQSAGGTHTLQRMYGCDVGSDGRLLRGYEQFAYDGCDYIALNEDLRTWTAADMAAQITRRKWEQAGAAEYYRAYLEGECVEWLHRYLKNG | soluble |
| GPLDLSRDECKRILRKLELEAYAGVISALRAQGDLTKEKKDLLGELSKVLSISTERHRAEVRRAVNDERLTTIAHNMSGPNSSSEWSIEGRRLVPLMPRLVPQTAFTVTANAVANAAIQHNASLPVPAETGSK | soluble |
| GPLGSEVKKKKNKKKNKKVNGLPPEIAAVPELAKYWAQRYRLFSRFDDGIKLDREGWFSVTPEKIAEHIAGRVSQSFKCDVVVDAFCGVGGNTIQFALTGMRVIAIDIDPVKIALARNNAEVYGIADKIEFICGDFLLLASFLKADVVFLSPPWGGPDYATAETFDIRTMMSPDGFEIFRLSKKITNNIVYFLPRNADIDQVASLAGPGGQVEIEQNFLNNKLKTITAYFGDLIRRPASET | soluble |
| GPLGSEWYYGNVTRHQAECALNERGVEGDFLIRDSESSPSDFSVSLKASGKNKHFKVQLVDNVYCIGQRRFHTMDELVEHYKKAPIFTSEHGEKLYLVRALQ | soluble |
| GPLGSKLNDILHVYEKSKERELQSQLFNAWRNRFCFYTEECNIQAISKRNYQLEKMVLKKFRERLLEIVKSEE | soluble |
| GPLGSMADSQDPLHERTRRLLSDYIFFCAREPDTPEPPPTSVEAALLRSVTRQIQQEHQEFFSSFCESRGNRLELVKQMADKLLSKDQDFSWSQLVMLLAFAGTLMNQGPYMAVKQKRDLGNRVIVTRDCCLIVNFLYNLLMGRRHRARLEALGGWDGFCRFFKNPLPLG | soluble |
| GPLGSMASKKVCIVGSGNWGSAIAKIVGGNAAQLAQFDPRVTMWVFEEDIGGKKLTEIINTQHENVKYLPGHKLPPNVVAVPDVVQAAEDADILIFVVPHQFIGKICDQLKGHLKANATGISLIKGVDEGPNGLKLISEVIGERLGIPMSVLMGANIASEVADEKFCETTIGCKDPAQGQLLKELMQTPNFRITVVQEVDTVEICGALKNVVAVGAGFCDGLGFGDNTKAAVIRLGLMEMIAFAKLFCSGPVSSATFLESCGVADLITTCYGGRNRKVAEAFARTGKSIEQLEKELLNGQKLQGPETARELYSILQHKGLVDKFPLFMAVYKVCYEGQPVGEFIHCLQNHPEHM | soluble |
| GPLGSNIEQYIHDLDSNSFELDLQFSEDEKRLLLEKQAGGNPWHQFVENNLILKMGPVDKRKGLFARRRQLLLTEGPHLYYVDPVNKVLKGEIPWSQELRPEAKNFKTFFVHTPNRTYYLMDPSGNAHKWCRKIQEVWRQRYQSHPDAAVQ | soluble |
| GPLGSPILELKEKIQPEILELIKQQRLNRLVEGTCFRKLNARRRQDKFWYCRLSPNHKVLHYGDLEESPQGEVPHDSLQDKLPVADIKAVVTGKDCPHMKEKGALKQNKEVLELAFSILYDSNCQLNFIAPDKHEYCIWTDGLNALLGK | soluble |
| GPYGAPAGPLIVPYNLPLPGGVVPRMLITILGTVKPNANRIALDFQRGNDVAFHFNPRFNENNRRVIVCNTKLDNNWGREERQSVFPFESGKPFKIQVLVEPDHFKVAVNDAHLLQYNHRVKKLNEISKLGISGDIDLTSASYTMI | soluble |
| GQLAQDGVPEWFHGAISREDAENLLESQPLGSFLIRVSHSHVGYTLSYKAQSSCCHFMVKLLDDGTFMIPGEKVAHTSLDALVTFHQQKPIEPRRELLTQPCRQKD | soluble |
| GRAGGRTLGEQWKEKLNAMGKEEFFSYRKEAILEVDRTEARRARREGNKVGGHPVSRGTAKLRWLVERRFVQPIGKVVDLGCGRGGWSYYAATMKNVQEVRGYTKGGPGHEEPMLMQSYGWNIVTMKSGVDVFYKPSEISDTLLCDIGESSPSAEIEEQRTLRILEMVSDWLSRGPKEFCIKILCPYMPKVIEKLESLQRRFGGGLVRVPLSRNSNHEMYWVSGASGNIVHAVNMTSQVLIGRMDKKIWKGPKYEEDVNLGSGTRAVGK | soluble |
| GSAQLLKSVFVKNVGWATQLTSGAVWVQFNDGSQLVMQAGVSSISYTSPDGQTTRYGENEKLPEYIKQKLQLLSSILLMFSNPTPVFQ | soluble |
| GSARDISSTNVTDLTVSPSKIEDGGKTTVKMTFDDKNGKIQNGDMIKVAWPTSGTVKIEGYSKTVPLTVKGEQVGQAVITPDGATITFNDKVEKLSDVSGFAEFEVQGRNLTQTNTSDDKVATITSGNKSTNVTVHKSEAGTSSVFYYKTGDMLPEDTTHVRWFLNINNEKSYVSKDITIKDQIQGGQQLDLSTLNINVTGTHSNYYSGQSAITDFEKAFPGSKITVDNTKNTIDVTIPQGYGSYNSFSINYKTKITNEQQKEFVNNSQAWYQEHGKEEVNGKSFNHTVHNINANAGIEGTVK | soluble |
